Positions count from the first letter of the chain named.

The target of test [1] is T1, human LAG-3 on cells (HEK293-hLAG-3 stable cell line) (human, UniProt P18627 23-525).
T1 sequence: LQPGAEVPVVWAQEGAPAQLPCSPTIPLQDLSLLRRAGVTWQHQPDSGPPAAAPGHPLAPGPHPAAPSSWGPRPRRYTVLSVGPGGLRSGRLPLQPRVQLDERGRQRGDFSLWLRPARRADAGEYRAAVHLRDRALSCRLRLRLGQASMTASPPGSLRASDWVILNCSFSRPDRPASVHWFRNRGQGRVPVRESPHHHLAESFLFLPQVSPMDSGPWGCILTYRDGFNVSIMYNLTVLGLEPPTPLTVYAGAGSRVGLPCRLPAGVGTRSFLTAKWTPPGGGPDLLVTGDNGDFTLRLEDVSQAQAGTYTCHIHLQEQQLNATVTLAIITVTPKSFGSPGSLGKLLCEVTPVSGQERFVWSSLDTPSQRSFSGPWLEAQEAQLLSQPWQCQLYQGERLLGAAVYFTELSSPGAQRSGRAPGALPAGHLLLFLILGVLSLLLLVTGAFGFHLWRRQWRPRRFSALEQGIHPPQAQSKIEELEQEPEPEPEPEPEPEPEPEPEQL
Put plainly: FACS, HEK293-hLAG-3, antibody 0 nM.

For test [2], the target named is T1, human LAG-3 on cells (HEK293-hLAG-3 …). Briefly: FACS, HEK293-hLAG-3, antibody 8 nM. An excerpt: (§1) A. The binding of antibodies to LAG-3 expressing cells was detected by Flow cytometry (FACS), wherein the method was according to that of Example 5.
(In general: Flow cytometry measures light scatter and fluorescence of single cells or particles in a stream.)

For test [3] the target is unchanged. Put plainly: FACS, HEK293-hLAG-3, antibody 40 nM.
Source text: as §1

The target is the same in test [4]. Briefly: FACS, HEK293-hLAG-3, antibody 1.6 nM.
Test [5] has the same target. Put plainly: FACS, HEK293-hLAG-3, antibody 0.32 nM.
Source text: as §1

For test [6] the target is unchanged. Briefly: FACS, HEK293-hLAG-3, antibody 0.013 nM.
Source text: as §1

Test [7] shares this target. Briefly: FACS, HEK293-hLAG-3, antibody 0.064 nM.
Source text: as §1

For test [8], the target named is T2, human LAG-3 ECD (antigen protein of the affinity test) (human, UniProt P18627 23-450).
T2 sequence: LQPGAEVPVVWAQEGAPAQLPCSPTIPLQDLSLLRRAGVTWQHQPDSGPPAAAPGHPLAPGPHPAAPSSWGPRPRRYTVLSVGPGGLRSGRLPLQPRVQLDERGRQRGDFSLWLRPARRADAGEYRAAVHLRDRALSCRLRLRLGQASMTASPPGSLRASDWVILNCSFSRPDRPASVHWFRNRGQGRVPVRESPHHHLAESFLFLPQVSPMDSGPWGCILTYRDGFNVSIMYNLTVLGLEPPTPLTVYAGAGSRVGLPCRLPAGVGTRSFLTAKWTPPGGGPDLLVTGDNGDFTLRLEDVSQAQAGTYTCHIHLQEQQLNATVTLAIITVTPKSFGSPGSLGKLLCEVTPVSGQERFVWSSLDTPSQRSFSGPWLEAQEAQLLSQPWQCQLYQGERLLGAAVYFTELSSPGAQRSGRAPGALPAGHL
Put plainly: SPR, CM5 chip, antibody captured by anti-human Fc IgG, antigen in flow, 1:1 fit. The method, then:
First, anti-human Fc IgG was immobilized on the surface of the CM5 chip to 6000-10000 RU by amino coupling method, with FC1 as the reference channel. The coupling process was as follows: a freshly prepared 1:1 mixture of 50 mM NHS and 200 mM EDC was activated for 7 minutes, then injected with 10-50 ug/ml anti-human Fc IgG diluted in 10 mM sodium acetate ph5.0 buffer. The remaining activated sites were blocked with 1M ethanolamine. Then, HBS-EP+ buffer was used to dilute the antibody to be tested to 5 ug/ml (adjustable according to the capture level) and the antibodies were captured on the chip at a flow rate of 10 ul/min to obtain a response value of about 100˜300 RU. Then the antigen protein was diluted to 100 nM (the highest concentration was tentatively 100 nM), and flew through the chip surface at a flow rate of 30 ul/min. If enough signal value was obtained, the antigen-protein was diluted by several concentration gradients, and flew through the chip surface respectively. At the end of each cycle, the chip surface was regenerated with 10 mM Glycine at pH 1.5. The kinetic rate constant needed to be subtracted from the blank control, and the data was fitted with the global fit analysis method 1:1 combination model. The dissociation equilibrium rate constant (KD) was calculated according to the following formula: KD=kd/ka.
A general note: In SPR one partner is held on a chip, and binding of the other changes the refractive index at the surface.

B1: 405B8H3-2 humanized antibody (antibody, V domains shown)
VH: QVQLVQSGAEVKKPGASVKVSCKASGYTFTDYEMHWVRQAPGQGLEWMGATDPETGNSAYNQKFKGRVTMTADKSTSTVYMELSSLRSEDTAVYYCISTGWNDWGQGTTVTVSS
VL: DIQMTQSPSSLSASVGDRVTITCKASQDINSYLSWFQQKPGKAPKSLIYRADRLLDGVPSRFSGSGSGTDFTLTISSLQPEDFATYYCLQYDEFPYTFGQGTKLEIK
In the case of B1, the Mean fluorescence intensity stood at 4 in test [1]; 245 in test [2]; 272 in test [3]; 188 in test [4]; 82 in test [5]; 11 in test [6]. This molecule also displayed a Mean fluorescence intensity in test [7] of 27. Besides, the dissociation constant (Kd) in test [8] came out at 1.68 nM. Besides, in test [8], the off-rate constant (koff) stood at 0.000184 s⁻¹. The kon in test [8] was 110000 M⁻¹ s⁻¹.

B2: 405B8H3-9 humanized antibody (antibody, V domains shown)
VH: B1 VH with A72R, K74T
VL: B1 VL with Q3K, A43S, T69Q, F71Y
On to B2, for which the Mean fluorescence intensity in test [1] was determined as 4; in test [2], 246; in test [3] it was 249; in test [4] it was 218; in test [5], 132; in test [6], 14. The molecule further registered a Mean fluorescence intensity in test [7] of 43.

B3: 405B8H3-11 humanized antibody (antibody, V domains shown)
VH: B1 VH with M48I, V68A, V79A
VL: B1 VL with Q3K, A43S, T69Q, F71Y
Turning to B3, the Mean fluorescence intensity in test [1] turned out to be 4; in test [2], 220; in test [3], 230; in test [4], 164; in test [5], 71; in test [6] it was 11. In test [7], this molecule yielded a Mean fluorescence intensity of 25.

B4: 405B8H3-4 humanized antibody (antibody, V domains shown)
VH: B1 VH with R38K, M48I, R67K, V68A, V79A
VL: B1 VL
In the case of B4, the Mean fluorescence intensity in test [1] came to 4; in test [2], 217; in test [3], 251; in test [4], 151; in test [5] it was 63; in test [6], 10. The same molecule showed a Mean fluorescence intensity in test [7] of 23.

B5: 405B8H3-3 humanized antibody (antibody, V domains shown)
VH: B1 VH with M48I, V68A, V79A
VL: B1 VL
For B5, the Mean fluorescence intensity stood at 4 in test [1]; 230 in test [2]; 253 in test [3]; 173 in test [4]; 74 in test [5]; 11 in test [6]. The same molecule returned a Mean fluorescence intensity in test [7] of 26.

B6: 405B8H3-10 humanized antibody (antibody, V domains shown)
VH: B1 VH
VL: B1 VL with Q3K, A43S, T69Q, F71Y
Turning to B6, the Mean fluorescence intensity worked out at 4 in test [1]; 229 in test [2]; 238 in test [3]; 184 in test [4]; 82 in test [5]; 11 in test [6]. This molecule registered a Mean fluorescence intensity in test [7] of 25.

B7: 405B8H3-1 humanized antibody (antibody, V domains shown)
VH: B1 VH with A72R, K74T
VL: B1 VL
B7: the Mean fluorescence intensity in test [1] amounted to 4; in test [2], 244; in test [3], 257; in test [4] it was 178; in test [5], 73; in test [6] it was 11. This molecule showed a Mean fluorescence intensity in test [7] of 26. Moreover, the Kd in test [8] turned out to be 2.54 nM. Moreover, the koff in test [8] worked out at 0.000254 s⁻¹. The on-rate constant (kon) in test [8] amounted to 100000 M⁻¹ s⁻¹.

B8: 405B8H3-7 humanized antibody (antibody, V domains shown)
VH: B1 VH with M48I, V68A, V79A
VL: B1 VL with T69Q, F71Y
With B8, the Mean fluorescence intensity in test [1] was 4; in test [2], 230; in test [3], 252; in test [4] it was 163; in test [5], 62; in test [6] it was 9. This molecule also returned a Mean fluorescence intensity in test [7] of 21. Moreover, in test [8], the dissociation constant (Kd) was determined as 3.28 nM. Moreover, the koff in test [8] turned out to be 0.000316 s⁻¹. Moreover, the kon in test [8] came out at 96400 M⁻¹ s⁻¹.

B9: 405B8H3-8 humanized antibody (antibody, V domains shown)
VH: B1 VH with R38K, M48I, R67K, V68A, V79A
VL: B1 VL with T69Q, F71Y
With B9, the Mean fluorescence intensity in test [1] was found to be 4; in test [2] it was 213; in test [3], 242; in test [4], 134; in test [5], 52; in test [6], 8. The molecule also gave a Mean fluorescence intensity in test [7] of 19.

B10: 405B8H3-5 humanized antibody (antibody, V domains shown)
VH: B1 VH with A72R, K74T
VL: B1 VL with T69Q, F71Y
In the case of B10, the Mean fluorescence intensity in test [1] was 4; in test [2], 243; in test [3], 257; in test [4] it was 174; in test [5], 62; in test [6], 9. The Mean fluorescence intensity in test [7] was 21.

B11: 405B8H3-12 humanized antibody (antibody, V domains shown)
VH: B1 VH with R38K, M48I, R67K, V68A, V79A
VL: B1 VL with Q3K, A43S, T69Q, F71Y
For B11, the Mean fluorescence intensity came to 4 in test [1]; 207 in test [2]; 229 in test [3]; 142 in test [4]; 61 in test [5]; 11 in test [6]. Also, the Mean fluorescence intensity in test [7] came out at 23.

As usually defined, the Kd is the constant that tells how readily two partners part at equilibrium. By koff is commonly meant the first-order rate constant of dissociation. Usually kon stands for the second-order rate constant of association.

Values taken from patent US20210155689A1 (SHANGHAI PHARMAEXPLORER, published 2021).
